Assay results reported in PMC10786891, “Massively parallel profiling of RNA-targeting CRISPR-Cas13d”.

B1: target 1 G12A,A20U (mixed)
RNA 1: CACCCGUGCAAAAAUGCAGGGGUCUAAAACUGAGCGGAUAACCUCUCUAUGG
RNA 2: GGGAAUGGAUCCACAUCUACGAAUUCGUACCUUAGAGAGAUUAUCCGCUCACCGAGAUCGGAAGAGCACACGU
B2: target 1 insU 3' of 4 (mixed)
RNA 1: CACCCGUGCAAAAAUGCAGGGGUCUAAAACUGAGCGGAUAACCUCUCUAUGG
RNA 2: GGGAAUGGAUCCACAUCUACGAAUUCGUACCAUAGAGAGGUUAUCCGCUUCACCGAGAUCGGAAGAGCACACGU
B3: target 1 insA 3' of 10,insC 3' of 3 (mixed)
RNA 1: CACCCGUGCAAAAAUGCAGGGGUCUAAAACUGAGCGGAUAACCUCUCUAUGG
RNA 2: GGGAAUGGAUCCACAUCUACGAAUUCGUACCAUAGAGAGGUUAAUCCGCUCCACCGAGAUCGGAAGAGCACACGU
B4: target 1 A1U,A9C (mixed)
RNA 1: CACCCGUGCAAAAAUGCAGGGGUCUAAAACUGAGCGGAUAACCUCUCUAUGG
RNA 2: GGGAAUGGAUCCACAUCUACGAAUUCGUACCAUAGAGAGGUUCUCCGCUCUCCGAGAUCGGAAGAGCACACGU
B5: target 1 G5U,C7A (mixed)
RNA 1: CACCCGUGCAAAAAUGCAGGGGUCUAAAACUGAGCGGAUAACCUCUCUAUGG
RNA 2: GGGAAUGGAUCCACAUCUACGAAUUCGUACCAUAGAGAGGUUAUACUCUCACCGAGAUCGGAAGAGCACACGU
B6: target 1 insA 3' of 22,insA 3' of 4 (mixed)
RNA 1: CACCCGUGCAAAAAUGCAGGGGUCUAAAACUGAGCGGAUAACCUCUCUAUGG
RNA 2: GGGAAUGGAUCCACAUCUACGAAUUCGUACACAUAGAGAGGUUAUCCGCAUCACCGAGAUCGGAAGAGCACACGU
B7: target 1 insC 3' of 22,insA 3' of 19 (mixed)
RNA 1: CACCCGUGCAAAAAUGCAGGGGUCUAAAACUGAGCGGAUAACCUCUCUAUGG
RNA 2: GGGAAUGGAUCCACAUCUACGAAUUCGUACCCAUAAGAGAGGUUAUCCGCUCACCGAGAUCGGAAGAGCACACGU
B8: target 1 insG 3' of 14,insU 3' of 13 (mixed)
RNA 1: CACCCGUGCAAAAAUGCAGGGGUCUAAAACUGAGCGGAUAACCUCUCUAUGG
RNA 2: GGGAAUGGAUCCACAUCUACGAAUUCGUACCAUAGAGAGGUGUUAUCCGCUCACCGAGAUCGGAAGAGCACACGU
B9: target 1 A9U,G15A (mixed)
RNA 1: CACCCGUGCAAAAAUGCAGGGGUCUAAAACUGAGCGGAUAACCUCUCUAUGG
RNA 2: GGGAAUGGAUCCACAUCUACGAAUUCGUACCAUAGAAAGGUUUUCCGCUCACCGAGAUCGGAAGAGCACACGU
B10: target 1 insU 3' of 9,insU 3' of 1 (mixed)
RNA 1: CACCCGUGCAAAAAUGCAGGGGUCUAAAACUGAGCGGAUAACCUCUCUAUGG
RNA 2: GGGAAUGGAUCCACAUCUACGAAUUCGUACCAUAGAGAGGUUAUUCCGCUCAUCCGAGAUCGGAAGAGCACACGU
B11: target 1 U8C,G12C (mixed)
RNA 1: CACCCGUGCAAAAAUGCAGGGGUCUAAAACUGAGCGGAUAACCUCUCUAUGG
RNA 2: GGGAAUGGAUCCACAUCUACGAAUUCGUACCAUAGAGAGCUUACCCGCUCACCGAGAUCGGAAGAGCACACGU
B12: target 1 insA 3' of 22,insG 3' of 11 (mixed)
RNA 1: CACCCGUGCAAAAAUGCAGGGGUCUAAAACUGAGCGGAUAACCUCUCUAUGG
RNA 2: GGGAAUGGAUCCACAUCUACGAAUUCGUACACAUAGAGAGGUGUAUCCGCUCACCGAGAUCGGAAGAGCACACGU
B13: target 1 U8A,A16G (mixed)
RNA 1: CACCCGUGCAAAAAUGCAGGGGUCUAAAACUGAGCGGAUAACCUCUCUAUGG
RNA 2: GGGAAUGGAUCCACAUCUACGAAUUCGUACCAUAGGGAGGUUAACCGCUCACCGAGAUCGGAAGAGCACACGU
B14: target 1 insA 3' of 17,insG 3' of 14 (mixed)
RNA 1: CACCCGUGCAAAAAUGCAGGGGUCUAAAACUGAGCGGAUAACCUCUCUAUGG
RNA 2: GGGAAUGGAUCCACAUCUACGAAUUCGUACCAUAGAAGAGGGUUAUCCGCUCACCGAGAUCGGAAGAGCACACGU
B15: target 1 insG 3' of 8,insU 3' of 7 (mixed)
RNA 1: CACCCGUGCAAAAAUGCAGGGGUCUAAAACUGAGCGGAUAACCUCUCUAUGG
RNA 2: GGGAAUGGAUCCACAUCUACGAAUUCGUACCAUAGAGAGGUUAUGCUCGCUCACCGAGAUCGGAAGAGCACACGU
B16: target 1 insU 3' of 22,insC 3' of 5 (mixed)
RNA 1: CACCCGUGCAAAAAUGCAGGGGUCUAAAACUGAGCGGAUAACCUCUCUAUGG
RNA 2: GGGAAUGGAUCCACAUCUACGAAUUCGUACUCAUAGAGAGGUUAUCCGCCUCACCGAGAUCGGAAGAGCACACGU
B17: target 1 U10G,G15A (mixed)
RNA 1: CACCCGUGCAAAAAUGCAGGGGUCUAAAACUGAGCGGAUAACCUCUCUAUGG
RNA 2: GGGAAUGGAUCCACAUCUACGAAUUCGUACCAUAGAAAGGUGAUCCGCUCACCGAGAUCGGAAGAGCACACGU
B18: target 1 C7G,C21U (mixed)
RNA 1: CACCCGUGCAAAAAUGCAGGGGUCUAAAACUGAGCGGAUAACCUCUCUAUGG
RNA 2: GGGAAUGGAUCCACAUCUACGAAUUCGUACUAUAGAGAGGUUAUGCGCUCACCGAGAUCGGAAGAGCACACGU
B19: target 1 insA 3' of 11,insA 3' of 5 (mixed)
RNA 1: CACCCGUGCAAAAAUGCAGGGGUCUAAAACUGAGCGGAUAACCUCUCUAUGG
RNA 2: GGGAAUGGAUCCACAUCUACGAAUUCGUACCAUAGAGAGGUAUAUCCGACUCACCGAGAUCGGAAGAGCACACGU
B20: target 1 G13C,G15C (mixed)
RNA 1: CACCCGUGCAAAAAUGCAGGGGUCUAAAACUGAGCGGAUAACCUCUCUAUGG
RNA 2: GGGAAUGGAUCCACAUCUACGAAUUCGUACCAUAGACACGUUAUCCGCUCACCGAGAUCGGAAGAGCACACGU
B21: target 1 insC 3' of 19,insC 3' of 9 (mixed)
RNA 1: CACCCGUGCAAAAAUGCAGGGGUCUAAAACUGAGCGGAUAACCUCUCUAUGG
RNA 2: GGGAAUGGAUCCACAUCUACGAAUUCGUACCAUCAGAGAGGUUACUCCGCUCACCGAGAUCGGAAGAGCACACGU
B22: target 1 insA 3' of 7,insG 3' of 4 (mixed)
RNA 1: CACCCGUGCAAAAAUGCAGGGGUCUAAAACUGAGCGGAUAACCUCUCUAUGG
RNA 2: GGGAAUGGAUCCACAUCUACGAAUUCGUACCAUAGAGAGGUUAUCACGCGUCACCGAGAUCGGAAGAGCACACGU
B23: target 1 C6A,G13U (mixed)
RNA 1: CACCCGUGCAAAAAUGCAGGGGUCUAAAACUGAGCGGAUAACCUCUCUAUGG
RNA 2: GGGAAUGGAUCCACAUCUACGAAUUCGUACCAUAGAGAUGUUAUCAGCUCACCGAGAUCGGAAGAGCACACGU
B24: target 1 U10A,C21A (mixed)
RNA 1: CACCCGUGCAAAAAUGCAGGGGUCUAAAACUGAGCGGAUAACCUCUCUAUGG
RNA 2: GGGAAUGGAUCCACAUCUACGAAUUCGUACAAUAGAGAGGUAAUCCGCUCACCGAGAUCGGAAGAGCACACGU
B25: target 1 insC 3' of 22,insG 3' of 8 (mixed)
RNA 1: CACCCGUGCAAAAAUGCAGGGGUCUAAAACUGAGCGGAUAACCUCUCUAUGG
RNA 2: GGGAAUGGAUCCACAUCUACGAAUUCGUACCCAUAGAGAGGUUAUGCCGCUCACCGAGAUCGGAAGAGCACACGU
B26: target 1 C7G,G12C (mixed)
RNA 1: CACCCGUGCAAAAAUGCAGGGGUCUAAAACUGAGCGGAUAACCUCUCUAUGG
RNA 2: GGGAAUGGAUCCACAUCUACGAAUUCGUACCAUAGAGAGCUUAUGCGCUCACCGAGAUCGGAAGAGCACACGU
B27: target 1 insG 3' of 11,insG 3' of 2 (mixed)
RNA 1: CACCCGUGCAAAAAUGCAGGGGUCUAAAACUGAGCGGAUAACCUCUCUAUGG
RNA 2: GGGAAUGGAUCCACAUCUACGAAUUCGUACCAUAGAGAGGUGUAUCCGCUCGACCGAGAUCGGAAGAGCACACGU
B28: target 1 U8A,G17U (mixed)
RNA 1: CACCCGUGCAAAAAUGCAGGGGUCUAAAACUGAGCGGAUAACCUCUCUAUGG
RNA 2: GGGAAUGGAUCCACAUCUACGAAUUCGUACCAUAUAGAGGUUAACCGCUCACCGAGAUCGGAAGAGCACACGU

Molecular target: T1, EsCas13d, nuclease-dead (Eubacterium siraeum, UniProt B0MS50, R295A;H300A;R849A;H854A)
T1 sequence: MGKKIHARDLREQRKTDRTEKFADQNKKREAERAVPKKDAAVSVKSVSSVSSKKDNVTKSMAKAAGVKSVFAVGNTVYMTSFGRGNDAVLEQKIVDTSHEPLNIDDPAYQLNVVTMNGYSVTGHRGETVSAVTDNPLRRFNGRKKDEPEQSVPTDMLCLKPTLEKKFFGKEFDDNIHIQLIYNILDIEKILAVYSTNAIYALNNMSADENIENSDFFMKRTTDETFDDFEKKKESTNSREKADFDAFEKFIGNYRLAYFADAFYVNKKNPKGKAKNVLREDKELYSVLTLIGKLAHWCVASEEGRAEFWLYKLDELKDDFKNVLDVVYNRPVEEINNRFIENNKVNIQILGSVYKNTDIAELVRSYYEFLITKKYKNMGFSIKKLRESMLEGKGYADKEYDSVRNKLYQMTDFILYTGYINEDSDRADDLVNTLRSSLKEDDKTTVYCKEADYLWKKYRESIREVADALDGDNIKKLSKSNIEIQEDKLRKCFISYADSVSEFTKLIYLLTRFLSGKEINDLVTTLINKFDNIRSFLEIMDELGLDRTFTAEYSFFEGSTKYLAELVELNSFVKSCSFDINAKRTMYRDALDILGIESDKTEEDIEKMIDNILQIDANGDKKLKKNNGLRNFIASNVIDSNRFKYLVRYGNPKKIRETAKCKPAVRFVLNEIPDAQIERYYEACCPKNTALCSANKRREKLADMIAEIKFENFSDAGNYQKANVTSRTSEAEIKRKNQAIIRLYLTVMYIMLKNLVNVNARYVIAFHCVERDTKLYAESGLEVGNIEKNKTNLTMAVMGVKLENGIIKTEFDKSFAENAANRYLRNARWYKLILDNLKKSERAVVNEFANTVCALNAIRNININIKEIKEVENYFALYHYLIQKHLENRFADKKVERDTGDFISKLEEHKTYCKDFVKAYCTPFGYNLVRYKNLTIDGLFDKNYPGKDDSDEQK
Assay: crRNA (strand 1, pre-loaded); Mg2+; 40 mM Tris-HCl pH 7.5, 150 mM NaCl, 6 mM MgCl2, 1 mM DTT, 0.1% Tween-20, 0.2 mg/ml BSA; 25 C; 10 min per concentration, then washed
Details: tags: His6-TwinStrep-SUMO cleaved; N-terminal SNAP kept (SNAP-Surface 488); label: 3' end held by stalled T7 RNA polymerase

Binder	Kd
B1	15.7 ± 0.9 nM
B2	8.7 ± 0.7 nM
B3	10.3 ± 0.6 nM
B4	15.4 ± 1.7 nM
B5	56 ± 9 nM
B6	7.8 ± 1.1 nM
B7	30 ± 9 nM
B8	22.8 ± 2.7 nM
B9	19.1 ± 1.4 nM
B10	32 ± 7 nM
B11	18.1 ± 0.6 nM
B12	42 ± 8 nM
B13	64 ± 6 nM
B14	15.5 ± 0.7 nM
B15	14.1 ± 0.5 nM
B16	100 ± 50 nM
B17	53 ± 15 nM
B18	6.7 ± 0.31 nM
B19	8.7 ± 0.4 nM
B20	52 ± 22 nM
B21	56 ± 11 nM
B22	5.33 ± 0.17 nM
B23	34 ± 4 nM
B24	33 ± 5 nM
B25	33 ± 4 nM
B26	23.6 ± 1.4 nM
B27	57 ± 8 nM
B28	61 ± 8 nM
